# In the supplement of paper PMC9170038:
# Tested on: K4 kissing-loop RNA reporter
# Experiment: apparent KD of K4 kissing-loop reporter; higher = weaker reporter binding
# Conditions: Eterna round: R107; input ligand: none
# Procedure: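 RNA-MaP round R107: designed RNA switches with theophylline, tryptophan, arginine or FMN aptamers are transcribed on-chip within common flanks. They are titrated with a labelled K4 kissing-loop RNA reporter in RNA-MaP buffer (100 mM Tris pH 7.5, 80 mM KCl, 4 mM MgCl2), without ligand or with the indicated ligand. Median apparent KD per design.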
# 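Also: bound reporter read as fluorescence of individual clusters on recovered sequencing chips by microscopy, with normalized cluster intensities fitted with a binding model.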
row,Sequence,apparent KD of K4 kissing-loop reporter [nM]
1,GGAGUUACCUGGGAUACCAGCCGGAGGCCCAGAGCUCGGAGUGAUGUUCUGGGAUGUUUCGGCCCUUGGCAGCUCUGGGUCUCCC [#2 Exclusion - Theophylline B Attempt #6 (HarryS)],535
2,CCCUCACGAGUGAUGUUCGUAGGGUACAGUCAGGAUAUCAUGCGGUUGAGAAGGGACAGAGAGGGCGGCCACUGGUUGCUCUUCU [Tiatesqu],235
3,CCUAUCUCAUACGAUACCAGUCAACGAGUGAUGUUCGAAUAAAUAAAUUUGCCAUAUAAUGACCCUUGGCAGCGUAUGGGAUAGG [Ex Theophylline B K4 14],337
4,GGCAUCCAUGGACAUAGUGAUGUUAUGUGCCGAGGACCGGUACGGCCGCCACUCGACCAUGGAUGCCGCAAUCGGAAACGAUUGC,1610
5,AAAAUAAAUAGCAGUCACGGAGUGAUGUUCCGAGGACCGGUACGGCCGCCACUCGACCAGACAAAGUCUGGAUGGCGAGACUGCA [#SwitchBubble 19 #K4Early],342
6,CCAUUCUUUUACGAUACCAGUUUAAUAUAUUUAAUCAAAACCCUCGCCGAGUGAUGUUCGGACCCUUGGCAGCGUUUGCGAGAGG [bjnbstkmullin],582
7,UGUAAGUGUCAGCGAGUGAUGUUCGACGAUACCAGACUCGAUAGAGUCCCUUGGCAGCGUAAUGCAUGCCAAACUGGCACAUACU [#SwitchBubble 11 #K4Early],560
8,AUACCUCUACGAGUGAUGUUUGUUGAGGAUACCAGCAUGUAUAGUUGCCCUUGGCAGCCUUGGCUCGUGCGCUCCCUCCGAACCG [theeternabot_exclusion_KL_Theo_A_30],291
9,AACUCUCAGACAUCUGAGUGAUGUUCAGGCCGAGGACCGGUACGGCCGCCACUCGGGUCUGAGAGAGGUUAUCAAAGAUAGCCAA [Omei KL Tryp A SS A v4],468

# Same assay, conditions: Eterna round: R107; input ligand: theophylline 20 uM
row,Sequence,apparent KD of K4 kissing-loop reporter [nM]
1,AUAGCACCUUAUGAUACCAGACGAGUGAUGUUCUGUGGUGUCGUCACAAGGCAAUCGACUGUCCCUUGGCAGCAUCAUUCUAUAU [theeternabot_exclusion_KL_Theo_B_31],722
2,AAACAACGUGACGAUACCAGCUUACUCGGCAAGCCAGUGAUGUUGGUGAAAAGGAGUCAAAGCCCUUGGCAGCGUCGAAGGUUUG [Leteon],138
3,AACUGUUGGGAAGGAUAUUAUGGUGGCUAAAUCCAGUGAUGUUGGAAAUCGGUACUCGCCCACCUUUAAGAAGGUCCGUGAAAGA [theeternabot_sameState_KL_FMN_B_6],199
4,AGCAGUCAACUCGAAACCAUCGAAGAUGGUCGAGGACCGGUACGGCCGCCACUCGGAGUGAUGUUCCGAAGACUGCAAAAUAAAA [#SwitchBubble 14],328
5,GGGAGUAGUGCGGCCGCCACUGAGAAAGAAGAAGAAUAUAGUGAUGUUAUAUAGGAAAGGAAGAACAGGACCGGGCAUUAGAGGG [SSTRyptB.C],243
6,AGUGGAACUUGCAGGUAUCCACAACUGGAUACCAGCUCGGAAACGAGCCCUUGGCAGCCAGAUCUUGCAGUGAUGUUGCAAGUUC [Design10],412
7,UGUGUUUUUUUGAUGUUUGUUGUAAAAUGGCAGGAUAUCGUAGAGGCGAGAAGGGCUUUUAUGCGUUAUGAGUGAUGUUUGUAGG [qqdqmullin],336
8,GAUGAUCGCGCGGCCGCCACUGGUCAGUGAUGUUGACAUUAAUGCGCCGAGUAGUAACGGCGCAGCAGGACCGGGCGCGAUGUAG [#12 K4 Tryptophan B Same State],121
9,AAAUAAAGCAGUCAGCCAGUGAUGUUGGAAGGAGCGUGCGAAAGCACAGGUAGGUCGCCAAAACCUAAUACUGGCUGCUAAAUAA [#SwitchBubble 1 #K4Early],753
10,GGAGUUACCUGGGAUACCAGCCGGAGGCCCAGAGCUCGGAGUGAUGUUCUGGGAUGUUUCGGCCCUUGGCAGCUCUGGGUCUCCC [#2 Exclusion - Theophylline B Attempt #6 (HarryS)],505
11,CCCUCACGAGUGAUGUUCGUAGGGUACAGUCAGGAUAUCAUGCGGUUGAGAAGGGACAGAGAGGGCGGCCACUGGUUGCUCUUCU [Tiatesqu],418
12,CCUAUCUCAUACGAUACCAGUCAACGAGUGAUGUUCGAAUAAAUAAAUUUGCCAUAUAAUGACCCUUGGCAGCGUAUGGGAUAGG [Ex Theophylline B K4 14],431
13,GGCAUCCAUGGACAUAGUGAUGUUAUGUGCCGAGGACCGGUACGGCCGCCACUCGACCAUGGAUGCCGCAAUCGGAAACGAUUGC,888
14,AAAAUAAAUAGCAGUCACGGAGUGAUGUUCCGAGGACCGGUACGGCCGCCACUCGACCAGACAAAGUCUGGAUGGCGAGACUGCA [#SwitchBubble 19 #K4Early],392
15,CCAUUCUUUUACGAUACCAGUUUAAUAUAUUUAAUCAAAACCCUCGCCGAGUGAUGUUCGGACCCUUGGCAGCGUUUGCGAGAGG [bjnbstkmullin],533
16,UGUAAGUGUCAGCGAGUGAUGUUCGACGAUACCAGACUCGAUAGAGUCCCUUGGCAGCGUAAUGCAUGCCAAACUGGCACAUACU [#SwitchBubble 11 #K4Early],528
17,AUACCUCUACGAGUGAUGUUUGUUGAGGAUACCAGCAUGUAUAGUUGCCCUUGGCAGCCUUGGCUCGUGCGCUCCCUCCGAACCG [theeternabot_exclusion_KL_Theo_A_30],277
18,AACUCUCAGACAUCUGAGUGAUGUUCAGGCCGAGGACCGGUACGGCCGCCACUCGGGUCUGAGAGAGGUUAUCAAAGAUAGCCAA [Omei KL Tryp A SS A v4],390

# Same assay, conditions: Eterna round: R107; input ligand: tryptophan 2.4 mM
row,Sequence,apparent KD of K4 kissing-loop reporter [nM]
1,AUAGCACCUUAUGAUACCAGACGAGUGAUGUUCUGUGGUGUCGUCACAAGGCAAUCGACUGUCCCUUGGCAGCAUCAUUCUAUAU [theeternabot_exclusion_KL_Theo_B_31],730
2,AAACAACGUGACGAUACCAGCUUACUCGGCAAGCCAGUGAUGUUGGUGAAAAGGAGUCAAAGCCCUUGGCAGCGUCGAAGGUUUG [Leteon],268
3,AACUGUUGGGAAGGAUAUUAUGGUGGCUAAAUCCAGUGAUGUUGGAAAUCGGUACUCGCCCACCUUUAAGAAGGUCCGUGAAAGA [theeternabot_sameState_KL_FMN_B_6],130
4,AGCAGUCAACUCGAAACCAUCGAAGAUGGUCGAGGACCGGUACGGCCGCCACUCGGAGUGAUGUUCCGAAGACUGCAAAAUAAAA [#SwitchBubble 14],477
5,GGGAGUAGUGCGGCCGCCACUGAGAAAGAAGAAGAAUAUAGUGAUGUUAUAUAGGAAAGGAAGAACAGGACCGGGCAUUAGAGGG [SSTRyptB.C],131
6,AGUGGAACUUGCAGGUAUCCACAACUGGAUACCAGCUCGGAAACGAGCCCUUGGCAGCCAGAUCUUGCAGUGAUGUUGCAAGUUC [Design10],381
7,UGUGUUUUUUUGAUGUUUGUUGUAAAAUGGCAGGAUAUCGUAGAGGCGAGAAGGGCUUUUAUGCGUUAUGAGUGAUGUUUGUAGG [qqdqmullin],241
8,GAUGAUCGCGCGGCCGCCACUGGUCAGUGAUGUUGACAUUAAUGCGCCGAGUAGUAACGGCGCAGCAGGACCGGGCGCGAUGUAG [#12 K4 Tryptophan B Same State],163
9,AAAUAAAGCAGUCAGCCAGUGAUGUUGGAAGGAGCGUGCGAAAGCACAGGUAGGUCGCCAAAACCUAAUACUGGCUGCUAAAUAA [#SwitchBubble 1 #K4Early],542
10,GGAGUUACCUGGGAUACCAGCCGGAGGCCCAGAGCUCGGAGUGAUGUUCUGGGAUGUUUCGGCCCUUGGCAGCUCUGGGUCUCCC [#2 Exclusion - Theophylline B Attempt #6 (HarryS)],521
11,CCCUCACGAGUGAUGUUCGUAGGGUACAGUCAGGAUAUCAUGCGGUUGAGAAGGGACAGAGAGGGCGGCCACUGGUUGCUCUUCU [Tiatesqu],200
12,CCUAUCUCAUACGAUACCAGUCAACGAGUGAUGUUCGAAUAAAUAAAUUUGCCAUAUAAUGACCCUUGGCAGCGUAUGGGAUAGG [Ex Theophylline B K4 14],334
13,GGCAUCCAUGGACAUAGUGAUGUUAUGUGCCGAGGACCGGUACGGCCGCCACUCGACCAUGGAUGCCGCAAUCGGAAACGAUUGC,115
14,AAAAUAAAUAGCAGUCACGGAGUGAUGUUCCGAGGACCGGUACGGCCGCCACUCGACCAGACAAAGUCUGGAUGGCGAGACUGCA [#SwitchBubble 19 #K4Early],340
15,CCAUUCUUUUACGAUACCAGUUUAAUAUAUUUAAUCAAAACCCUCGCCGAGUGAUGUUCGGACCCUUGGCAGCGUUUGCGAGAGG [bjnbstkmullin],397
16,UGUAAGUGUCAGCGAGUGAUGUUCGACGAUACCAGACUCGAUAGAGUCCCUUGGCAGCGUAAUGCAUGCCAAACUGGCACAUACU [#SwitchBubble 11 #K4Early],434
17,AUACCUCUACGAGUGAUGUUUGUUGAGGAUACCAGCAUGUAUAGUUGCCCUUGGCAGCCUUGGCUCGUGCGCUCCCUCCGAACCG [theeternabot_exclusion_KL_Theo_A_30],247
18,AACUCUCAGACAUCUGAGUGAUGUUCAGGCCGAGGACCGGUACGGCCGCCACUCGGGUCUGAGAGAGGUUAUCAAAGAUAGCCAA [Omei KL Tryp A SS A v4],540
